The values below come from paper PMC9502102, “Thrombin Determination Using Graphene Oxide Sensors with Co-Assisted Amplification”.

The data set has as its target thrombin (UniProt P00734;P00734 328-363;364-622). Description: fluorescence recovery (FAM-TBA released from GO/capture DNA); FAM-TBA with capture DNA on PEG-blocked GO; thrombin 0.0025-15 nM; sensor LOD is not a Kd; GO 5 ug/mL, 10 nM FAM-DNA, 30 min incubation (covalent sensor); PBS listed in materials, PBS vs water compared in Fig. S6; pH, salt and temperature not in the m.

On to AAAAGTCCGTGGTAGGGCAGGTTGGGGTGACT (ssDNA) [Thrombin binding aptamer (TBA)], for which the binding result is given as “binds”.
